T1: FcγRIIa R (FcγRIIa, allotype R: Arg at position 131) extracellular domain with C-terminal His tag (human, UniProt P12318 34-217)
T1 construct: extracellular domain; also called FcgRIIa R; 2aR; not shown: His tag at the C terminus
T1 sequence (looked up): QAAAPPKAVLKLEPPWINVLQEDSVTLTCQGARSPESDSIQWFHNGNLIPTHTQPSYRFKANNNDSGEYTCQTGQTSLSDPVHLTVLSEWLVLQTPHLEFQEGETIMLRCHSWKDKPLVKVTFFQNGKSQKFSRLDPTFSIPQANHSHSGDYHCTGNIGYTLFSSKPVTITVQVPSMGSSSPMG

T2: FcγRIIb extracellular domain with C-terminal His tag (human, UniProt P31994 43-217)
T2 construct: extracellular domain; also called FcgRIIb; 2b; not shown: His tag at the C terminus
T2 sequence (looked up): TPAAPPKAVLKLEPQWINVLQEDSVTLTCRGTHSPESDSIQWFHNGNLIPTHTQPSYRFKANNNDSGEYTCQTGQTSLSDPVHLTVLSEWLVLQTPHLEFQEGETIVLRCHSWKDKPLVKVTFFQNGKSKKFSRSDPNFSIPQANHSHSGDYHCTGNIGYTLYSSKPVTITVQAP


How the values were obtained:
[1] = molecular target: T1, FcγRIIa R (FcγRIIa, allotype R: Arg at …); assay: SPR Biacore, antibody captured, FcgR analyte; vs HeCon Ab GpH7-A5/GpH7-B3/GpL16-k0 = 100
Procedure: (§1) The heterodimerized antibodies He Abs in which one of the H chains was introduced with an alteration were assayed for their binding activities to each activating FcγR and inhibitory FcγR according to the method described in Example 4. […] The activating FcγRs in FIGS. 26, 27, 28, and 29 are FcγRIa, FcγRIIa (R), FcγRIIa (H), and FcγRIIIa, respectively.
(§2) Analysis of interaction between objective antibody and the FcγR was carried out using Biacore T100 (GE Healthcare). HBS-EP+ (GE Healthcare) was used as the running buffer, and the measurement temperature was set to 25° C. Chips produced by immobilizing the antigen peptide by the amine coupling method to a Series S Sencor Chip CM5 (GE Healthcare), or alternatively, chips produced by allowing preliminarily biotinylated antigen peptides to interact with and immobilize onto a Series S Sensor Chip SA (certified) (GE Healthcare) were used. Antibodies of interest were captured onto an antigen peptide-immobilized chip, and allowed to interact to each FcγR diluted with running buffer. To regenerate and repeatedly use the chip, the antibodies captured on the chip were washed off by reacting 10 mM glycine-HCl, pH 1.5.

[2] = molecular target: T2, FcγRIIb extracellular domain with …; assay: as above
Procedure: as §1, §2

Row | Binder | He/Con_2aR [1] [control = 100] | He/Con_2b [2] [control = 100]
1 | GpH7-A5/GpH7-B3 variant N325_10E/GpL16-k0 (antibody, human IgG1, kappa, He Ab: alteration in the GpH7-B3 H chain only; also called He Ab) heavy 1: not shown heavy 2: not shown light: DIVMTQSPLSLPVTPGEPASISCQASESLVHSNRNTYLHWYLQKPGQSPQLLIYKVSNRFSGVPDRFSGSGSGTDFTLKISRVEAEDVGVYYCSQNTHVPPTFGQGTKVEIERTVAAPSVFIFPPSDEQLKSGTASVVCLLNNFYPREAKVQWKVDNALQSGNSQESVTEQDSKDSTYSLSSTLTLSKADYEKHKVYACEVTHQGLSSPVTKSFNRGEC | 105 | 95.9
2 | GpH7-A5/GpH7-B3 variant Y296_04F/GpL16-k0 (antibody, human IgG1, kappa, He Ab: alteration in the GpH7-B3 H chain only; also called He Ab) heavy 1: not shown heavy 2: not shown light: DIVMTQSPLSLPVTPGEPASISCQASESLVHSNRNTYLHWYLQKPGQSPQLLIYKVSNRFSGVPDRFSGSGSGTDFTLKISRVEAEDVGVYYCSQNTHVPPTFGQGTKVEIERTVAAPSVFIFPPSDEQLKSGTASVVCLLNNFYPREAKVQWKVDNALQSGNSQESVTEQDSKDSTYSLSSTLTLSKADYEKHKVYACEVTHQGLSSPVTKSFNRGEC | 109 | 99.2
3 | GpH7-A5/GpH7-B3 variant Q295_06M/GpL16-k0 (antibody, human IgG1, kappa, He Ab: alteration in the GpH7-B3 H chain only; also called He Ab) heavy 1: not shown heavy 2: not shown light: DIVMTQSPLSLPVTPGEPASISCQASESLVHSNRNTYLHWYLQKPGQSPQLLIYKVSNRFSGVPDRFSGSGSGTDFTLKISRVEAEDVGVYYCSQNTHVPPTFGQGTKVEIERTVAAPSVFIFPPSDEQLKSGTASVVCLLNNFYPREAKVQWKVDNALQSGNSQESVTEQDSKDSTYSLSSTLTLSKADYEKHKVYACEVTHQGLSSPVTKSFNRGEC | 102 | 90.4
4 | GpH7-A5/GpH7-B3 variant N325_15Y/GpL16-k0 (antibody, human IgG1, kappa, He Ab: alteration in the GpH7-B3 H chain only; also called He Ab) heavy 1: not shown heavy 2: not shown light: DIVMTQSPLSLPVTPGEPASISCQASESLVHSNRNTYLHWYLQKPGQSPQLLIYKVSNRFSGVPDRFSGSGSGTDFTLKISRVEAEDVGVYYCSQNTHVPPTFGQGTKVEIERTVAAPSVFIFPPSDEQLKSGTASVVCLLNNFYPREAKVQWKVDNALQSGNSQESVTEQDSKDSTYSLSSTLTLSKADYEKHKVYACEVTHQGLSSPVTKSFNRGEC | 101 | 99.5
5 | GpH7-A5/GpH7-B3 variant N325_14T/GpL16-k0 (antibody, human IgG1, kappa, He Ab: alteration in the GpH7-B3 H chain only; also called He Ab) heavy 1: not shown heavy 2: not shown light: DIVMTQSPLSLPVTPGEPASISCQASESLVHSNRNTYLHWYLQKPGQSPQLLIYKVSNRFSGVPDRFSGSGSGTDFTLKISRVEAEDVGVYYCSQNTHVPPTFGQGTKVEIERTVAAPSVFIFPPSDEQLKSGTASVVCLLNNFYPREAKVQWKVDNALQSGNSQESVTEQDSKDSTYSLSSTLTLSKADYEKHKVYACEVTHQGLSSPVTKSFNRGEC | 105 | 91.6
6 | GpH7-A5/GpH7-B3 variant P331_13S/GpL16-k0 (antibody, human IgG1, kappa, He Ab: alteration in the GpH7-B3 H chain only; also called He Ab) heavy 1: not shown heavy 2: not shown light: DIVMTQSPLSLPVTPGEPASISCQASESLVHSNRNTYLHWYLQKPGQSPQLLIYKVSNRFSGVPDRFSGSGSGTDFTLKISRVEAEDVGVYYCSQNTHVPPTFGQGTKVEIERTVAAPSVFIFPPSDEQLKSGTASVVCLLNNFYPREAKVQWKVDNALQSGNSQESVTEQDSKDSTYSLSSTLTLSKADYEKHKVYACEVTHQGLSSPVTKSFNRGEC | 105 | 96.8
7 | GpH7-A5/GpH7-B3 variant Y296_09D/GpL16-k0 (antibody, human IgG1, kappa, He Ab: alteration in the GpH7-B3 H chain only; also called He Ab) heavy 1: not shown heavy 2: not shown light: DIVMTQSPLSLPVTPGEPASISCQASESLVHSNRNTYLHWYLQKPGQSPQLLIYKVSNRFSGVPDRFSGSGSGTDFTLKISRVEAEDVGVYYCSQNTHVPPTFGQGTKVEIERTVAAPSVFIFPPSDEQLKSGTASVVCLLNNFYPREAKVQWKVDNALQSGNSQESVTEQDSKDSTYSLSSTLTLSKADYEKHKVYACEVTHQGLSSPVTKSFNRGEC | 106 | 98.9
8 | GpH7-A5/GpH7-B3 variant P331_09D/GpL16-k0 (antibody, human IgG1, kappa, He Ab: alteration in the GpH7-B3 H chain only; also called He Ab) heavy 1: not shown heavy 2: not shown light: DIVMTQSPLSLPVTPGEPASISCQASESLVHSNRNTYLHWYLQKPGQSPQLLIYKVSNRFSGVPDRFSGSGSGTDFTLKISRVEAEDVGVYYCSQNTHVPPTFGQGTKVEIERTVAAPSVFIFPPSDEQLKSGTASVVCLLNNFYPREAKVQWKVDNALQSGNSQESVTEQDSKDSTYSLSSTLTLSKADYEKHKVYACEVTHQGLSSPVTKSFNRGEC | 102 | 94.3
9 | GpH7-A5/GpH7-B3 variant S324_04F/GpL16-k0 (antibody, human IgG1, kappa, He Ab: alteration in the GpH7-B3 H chain only; also called He Ab) heavy 1: not shown heavy 2: not shown light: DIVMTQSPLSLPVTPGEPASISCQASESLVHSNRNTYLHWYLQKPGQSPQLLIYKVSNRFSGVPDRFSGSGSGTDFTLKISRVEAEDVGVYYCSQNTHVPPTFGQGTKVEIERTVAAPSVFIFPPSDEQLKSGTASVVCLLNNFYPREAKVQWKVDNALQSGNSQESVTEQDSKDSTYSLSSTLTLSKADYEKHKVYACEVTHQGLSSPVTKSFNRGEC | 104 | 89.1
10 | GpH7-A5/GpH7-B3 variant S239_14T/GpL16-k0 (antibody, human IgG1, kappa, He Ab: alteration in the GpH7-B3 H chain only; also called He Ab) heavy 1: not shown heavy 2: not shown light: DIVMTQSPLSLPVTPGEPASISCQASESLVHSNRNTYLHWYLQKPGQSPQLLIYKVSNRFSGVPDRFSGSGSGTDFTLKISRVEAEDVGVYYCSQNTHVPPTFGQGTKVEIERTVAAPSVFIFPPSDEQLKSGTASVVCLLNNFYPREAKVQWKVDNALQSGNSQESVTEQDSKDSTYSLSSTLTLSKADYEKHKVYACEVTHQGLSSPVTKSFNRGEC | 103 | 97.3
11 | GpH7-A5/GpH7-B3 variant P331_18N/GpL16-k0 (antibody, human IgG1, kappa, He Ab: alteration in the GpH7-B3 H chain only; also called He Ab) heavy 1: not shown heavy 2: not shown light: DIVMTQSPLSLPVTPGEPASISCQASESLVHSNRNTYLHWYLQKPGQSPQLLIYKVSNRFSGVPDRFSGSGSGTDFTLKISRVEAEDVGVYYCSQNTHVPPTFGQGTKVEIERTVAAPSVFIFPPSDEQLKSGTASVVCLLNNFYPREAKVQWKVDNALQSGNSQESVTEQDSKDSTYSLSSTLTLSKADYEKHKVYACEVTHQGLSSPVTKSFNRGEC | 105 | 99.2
12 | GpH7-A5/GpH7-B3 variant Q295_10E/GpL16-k0 (antibody, human IgG1, kappa, He Ab: alteration in the GpH7-B3 H chain only; also called He Ab) heavy 1: not shown heavy 2: not shown light: DIVMTQSPLSLPVTPGEPASISCQASESLVHSNRNTYLHWYLQKPGQSPQLLIYKVSNRFSGVPDRFSGSGSGTDFTLKISRVEAEDVGVYYCSQNTHVPPTFGQGTKVEIERTVAAPSVFIFPPSDEQLKSGTASVVCLLNNFYPREAKVQWKVDNALQSGNSQESVTEQDSKDSTYSLSSTLTLSKADYEKHKVYACEVTHQGLSSPVTKSFNRGEC | 102 | 94.8
13 | GpH7-A5/GpH7-B3 variant P331_08L/GpL16-k0 (antibody, human IgG1, kappa, He Ab: alteration in the GpH7-B3 H chain only; also called He Ab) heavy 1: not shown heavy 2: not shown light: DIVMTQSPLSLPVTPGEPASISCQASESLVHSNRNTYLHWYLQKPGQSPQLLIYKVSNRFSGVPDRFSGSGSGTDFTLKISRVEAEDVGVYYCSQNTHVPPTFGQGTKVEIERTVAAPSVFIFPPSDEQLKSGTASVVCLLNNFYPREAKVQWKVDNALQSGNSQESVTEQDSKDSTYSLSSTLTLSKADYEKHKVYACEVTHQGLSSPVTKSFNRGEC | 102 | 95.7
14 | GpH7-A5/GpH7-B3 variant Y296_06M/GpL16-k0 (antibody, human IgG1, kappa, He Ab: alteration in the GpH7-B3 H chain only; also called He Ab) heavy 1: not shown heavy 2: not shown light: DIVMTQSPLSLPVTPGEPASISCQASESLVHSNRNTYLHWYLQKPGQSPQLLIYKVSNRFSGVPDRFSGSGSGTDFTLKISRVEAEDVGVYYCSQNTHVPPTFGQGTKVEIERTVAAPSVFIFPPSDEQLKSGTASVVCLLNNFYPREAKVQWKVDNALQSGNSQESVTEQDSKDSTYSLSSTLTLSKADYEKHKVYACEVTHQGLSSPVTKSFNRGEC | 101 | 87.8
15 | GpH7-A5/GpH7-B3 variant Y296_07I/GpL16-k0 (antibody, human IgG1, kappa, He Ab: alteration in the GpH7-B3 H chain only; also called He Ab) heavy 1: not shown heavy 2: not shown light: DIVMTQSPLSLPVTPGEPASISCQASESLVHSNRNTYLHWYLQKPGQSPQLLIYKVSNRFSGVPDRFSGSGSGTDFTLKISRVEAEDVGVYYCSQNTHVPPTFGQGTKVEIERTVAAPSVFIFPPSDEQLKSGTASVVCLLNNFYPREAKVQWKVDNALQSGNSQESVTEQDSKDSTYSLSSTLTLSKADYEKHKVYACEVTHQGLSSPVTKSFNRGEC | 101 | 84.3
16 | GpH7-A5/GpH7-B3 variant P331_02A/GpL16-k0 (antibody, human IgG1, kappa, He Ab: alteration in the GpH7-B3 H chain only; also called He Ab) heavy 1: not shown heavy 2: not shown light: DIVMTQSPLSLPVTPGEPASISCQASESLVHSNRNTYLHWYLQKPGQSPQLLIYKVSNRFSGVPDRFSGSGSGTDFTLKISRVEAEDVGVYYCSQNTHVPPTFGQGTKVEIERTVAAPSVFIFPPSDEQLKSGTASVVCLLNNFYPREAKVQWKVDNALQSGNSQESVTEQDSKDSTYSLSSTLTLSKADYEKHKVYACEVTHQGLSSPVTKSFNRGEC | 106 | 99.5
17 | GpH7-A5/GpH7-B3 variant P331_14T/GpL16-k0 (antibody, human IgG1, kappa, He Ab: alteration in the GpH7-B3 H chain only; also called He Ab) heavy 1: not shown heavy 2: not shown light: DIVMTQSPLSLPVTPGEPASISCQASESLVHSNRNTYLHWYLQKPGQSPQLLIYKVSNRFSGVPDRFSGSGSGTDFTLKISRVEAEDVGVYYCSQNTHVPPTFGQGTKVEIERTVAAPSVFIFPPSDEQLKSGTASVVCLLNNFYPREAKVQWKVDNALQSGNSQESVTEQDSKDSTYSLSSTLTLSKADYEKHKVYACEVTHQGLSSPVTKSFNRGEC | 104 | 99.8
